Assay results: patent publication US9592268B2, “Endothelium protective materials and methods of use” (CORNELL UNIVERSITY, priority 2011, dated 2017)

B1: r-apoM-bound S1P: S1P complexed with equi-molar recombinant apoM (protein, UniProt O95445 1-188, looked up)
Apolipoprotein M: MFHQIWAALLYFYGIILNSIYQCPEHSQLTTLGVDGKEFPEVHLGQWYFIAGAAPTKEELATFDPVDNIVFNMAAGSAPMQLHLRATIRMKDGLCVPRKWIYHLTEGSTDLRTEGRPDMKTELFSSSCPGGIMLNETGQGYQRFLLYNRSPHPPEKCVEEFKSLTSCLDSKAFLLTPRNQEACELSNN
modifications: complexed with S1P
B2: r-apoM without S1P: recombinant apoM not complexed with S1P (protein, UniProt O95445 1-188, looked up)
Apolipoprotein M: MFHQIWAALLYFYGIILNSIYQCPEHSQLTTLGVDGKEFPEVHLGQWYFIAGAAPTKEELATFDPVDNIVFNMAAGSAPMQLHLRATIRMKDGLCVPRKWIYHLTEGSTDLRTEGRPDMKTELFSSSCPGGIMLNETGQGYQRFLLYNRSPHPPEKCVEEFKSLTSCLDSKAFLLTPRNQEACELSNN

Legend:
[1] = system: VCAM-1; assay: TNFα-induced cell surface VCAM-1 expression in HUVEC by flow cytometry; type: cell-based, human; settings: for suppression of cytokine-induced VCAM-1 expression: human endothelial cells (FIG. 9)
Experimental: FIG. 9. ApoM/S1P inhibition of endothelial cell VCAM-1 expression. Human umbilical vein endothelial cells (HUVEC) were treated with TNFα for 3 hr. Some cells were co-treated with recombinant (r)ApoM (100 nM) or rApoM/S1P complex (100 nM) or albumin/S1P complex (100 nM) for the same amount of time. The cells were then analyzed for the cell surface expression of Vascular cell adhesion molecule (VCAM)-1 by flow cytometry. Note that ApoM/S1P complex inhibited (˜40%) TNFα-induced VCAM-1 expression.
Inflammation of vascular endothelial cells is a critical initiating event in atherosclerosis, which leads to heart attacks and strokes. Endothelial cell inflammation is induced by cytokines such as TNFα and IL-1β. When endothelial cells are exposed to such cytokines, an inflammatory program of gene expression is induced, resulting in the formation of adhesion molecules such as VCAM-1, which in turn is needed for the recruitment of monocytes into the blood vessel wall. […] Thus, ApoM/S1P complexes can be used to suppress vascular inflammation as a potential treatment for atherosclerosis.

[2] = system: HUVEC; assay: adherens junction assembly assay (VE-cadherin immunostaining) in HUVEC; type: cell-based, human; settings: HUVEC stimulated 1 h; HDL 100 μg/ml; S1P complexes or r-apoM 100 nM
Experimental: (§1) FIG. 4. ApoM-bound S1P activates S1P1-mediated intracellular signaling pathways and affects migration of HUVEC. (A) Confocal microscopy of HEK293 cells stably expressing S1P1-GFP. Cells were serum starved, stimulated for 1 h with indicated ligands, fixed and imaged. ApoM^+HDL (equivalent to ˜100 nM S1P as determined by LC/MS/MS) or ApoM^−HDL was used at 100 μg/ml. Fatty acid free BSA and r-apoM were complexed with S1P and used at the final concentration of 100 nM (equimolar for both protein and lipid). Scale bar, 20 μm. […] Activation of p44/42, and Akt was examined by western blot analysis using phospho-specific antibodies. (C) HUVEC were serum starved and pre-treated with 1 μM VPC44116 for 30 min where indicated and subjected to migration assay with 10 μg/ml apoM^+HDL (10 nM S1P) or 10 μg/ml apoM^−HDL or 10 nM albumin-S1P. Data are mean±SD, n=3. * p<0.01. (D) Microscopy of HUVEC that were serum starved and stimulated with 100 μg/ml apoM^+HDL, apoM^−HDL, 100 nM albumin-S1P, r-apoM-S1P or 100 nM S1P-free r-apoM for 1 h. […] Scale bar, 20 μm. HUVEC were serum starved and stimulated for 5 min with 30 nM albumin-S1P, r-apoM-S1P, 10 μg/mL ApoM+ HDL, or 30 nM S1P-free r-apoM (E) or with increasing concentrations of albumin or r-apoM-S1P (F). Activation of p44/42 and Akt was examined by Western blot analysis using phospho-specific antibodies. […]

[3] = molecular target: T1, S1P1 receptor (Homo sapiens, UniProt P21453); assay: S1P1 internalization in HEK293 cells stably expressing S1P1-GFP; type: cell-based; settings: stimulated 1 h; HDL 100 μg/ml; S1P complexes 100 nM
T1 construct: expressed in transfected cells
T1 sequence (P21453 whole entry): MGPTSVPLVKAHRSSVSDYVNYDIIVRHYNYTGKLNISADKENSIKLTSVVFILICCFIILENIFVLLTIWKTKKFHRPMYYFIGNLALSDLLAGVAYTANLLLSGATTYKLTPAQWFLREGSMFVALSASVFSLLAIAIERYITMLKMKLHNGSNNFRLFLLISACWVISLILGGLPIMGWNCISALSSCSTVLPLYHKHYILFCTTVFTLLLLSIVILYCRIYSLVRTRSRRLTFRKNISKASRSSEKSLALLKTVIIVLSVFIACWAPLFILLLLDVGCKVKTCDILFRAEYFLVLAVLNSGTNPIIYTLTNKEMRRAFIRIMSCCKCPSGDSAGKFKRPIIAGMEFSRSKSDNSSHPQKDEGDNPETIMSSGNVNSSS
Experimental: as §1, with “(F).” for “(F). Activation of p44/42 and Akt was examined by Western blot analysis using phospho-specific antibodies.”
General Methods. […] Numerical differences were analyzed with two-tailed Student's t test. […]

[4] = system: HUVEC; assay: HUVEC migration (chemotaxis chamber) assay; type: cell-based, human
Experimental: as §1, with “μm.” for “μm. HUVEC were serum starved and stimulated for 5 min with 30 nM albumin-S1P, r-apoM-S1P, 10 μg/mL ApoM+ HDL, or 30 nM S1P-free r-apoM (E) or with increasing concentrations of albumin or r-apoM-S1P (F). Activation of p44/42 and Akt was examined by Western blot analysis using phospho-specific antibodies.”
General Methods. […] Numerical differences were analyzed with two-tailed Student's t test.
Migration Assays. […] The filter was scanned, and the color density of each well was quantified using ImageJ software. […]

Molecule	inhibition of TNFα-induced VCAM-1 expression ([1]; 100 nM, co-treated with TNFα for 3 hr) [%]	suppression of cytokine-induced VCAM-1 expression [1]	adherens junction and F-actin formation [2]	internalization of GFP-S1P1 receptor [3]	chemoattractant activity compared with albumin-bound S1P ([4]; increasing concentrations (FIG. 4G))	chemotaxis of HUVEC toward chemoattractant ([4]; serum-starved HUVEC, 4 h at 37° C.)
B1	~40	significant suppression	well-spread, contained F-actin and formed adherens junctions	induced robust internalization	slightly higher activity	worked as chemoattractants in a concentration-dependent manner
B2	–	not seen	not efficiently induced	Neither apoM^−HDL nor r-apoM without S1P caused receptor internalization	–	–
